Molecular target: T1, FS-EEE-mFc (human, UniProt P19883 30-344, K76 mutagenized to glutamic acid | K81 mutagenized to glutamic acid | K82 …)
T1 construct: follistatin FS315, human, with K76, K81 and K82 changed to glutamic acid; FS315 cDNA (Clontech) cloned in frame to murine IgG1 Fc cDNA; also called engineered follistatin; FST-EEE-mFc
Assay: SPR; surface plasmon resonance method as in ref. 48; which partner was immobilised and the conditions are not told
Conditions: both partners purified

T1 sequence (P19883 other isoform, or with tags, fused parts or gaps with the stated changes): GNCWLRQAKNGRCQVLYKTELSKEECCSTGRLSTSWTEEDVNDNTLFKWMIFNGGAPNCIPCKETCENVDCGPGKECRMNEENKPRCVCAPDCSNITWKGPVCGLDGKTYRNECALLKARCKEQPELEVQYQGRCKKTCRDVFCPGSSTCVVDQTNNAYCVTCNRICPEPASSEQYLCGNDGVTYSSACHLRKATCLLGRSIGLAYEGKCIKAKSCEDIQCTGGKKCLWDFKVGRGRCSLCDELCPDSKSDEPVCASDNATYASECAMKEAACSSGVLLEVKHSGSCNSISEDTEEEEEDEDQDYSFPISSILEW

B1: activin A (ligand, UniProt P08476 311-426, looked up)
chain: GLECDGKVNICCKKQFFVSFKDIGWNDWIIAPSGYHANYCEGECPSHIAGTSGSSLSFHSTVINHYRMRGHSPFANLKSCCVPTKLRPMSMLYYDDGQNIIKKDIQNMIVEECGCS
notes: activin A (inhibin beta A chain), the ligand used in SPR
Work on B1 yielded a Kd of 6.1 pM.
